Measurements from the supplement of paper PMC9732359.
± gives the uncertainty stated by the source.

Experiment: protein stability index of a GFP-peptide fusion (yeast GPS) (PSI 1-4); higher = more stable; sorted into four equal gates, so the index is relative within each strain
In short: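 Sequencing reads from sorted gates were used to score each peptide. The library consisted of tiled 17-residue yeast protein peptides fused downstream of GFP on a Cherry-expressing plasmid, pooled and carried in yeast. Mid-log cultures in leucine-free medium were split into four equal gates by GFP/Cherry ratio, and each gate's plasmids were PCR-amplified and Illumina-sequenced. The protein stability index adds up, over all gates, the read frequency multiplied by the gate number.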

Sequence	protein stability index (doa10∆)	protein stability index (pdr5∆)	protein stability index (san1∆)	protein stability index (ubr1∆)
SLLSLVGHLSILPQQSK [ECM29]	2.21 ± 0.048	2 ± 0.052	1.94 ± 0.058	1.64 ± 0.027
HEIITVGPHFKQANNFL [RPL7A]	2.45 ± 0.062	2.7 ± 0.069	2.98 ± 0.061	2.54 ± 0.053
PEEATTIFSVMVEWLES [PRP8]	1.76 ± 0.076	1.26 ± 0.093	1.28 ± 0.14	1.77 ± 0.13
QSFQNPFTASQSNINTN [YIL149C/MLP2]	2.57 ± 0.067	2.55 ± 0.044	2.62 ± 0.053	2.73 ± 0.043
MPRAPRTYSKTYSTPKR [RPS9A]	2.3 ± 0.064	2.45 ± 0.069	2.68 ± 0.053	2.62 ± 0.054
NRMQISPDQMRNLQMGL [GRR1]		3.18 ± 0.12	3.27 ± 0.11	2.83 ± 0.12
MGDNSQLDFTEFDEQYG [SNF2]	3.31 ± 0.057	3.15 ± 0.067	3.31 ± 0.052	3.14 ± 0.045
GWKPLRYLDNLKQEIDR [SNU114]				3.15 ± 0.13
AKTLTYPEVVTPYNIDR [RPO21]	2.17 ± 0.074	2.35 ± 0.078	1.94 ± 0.073	2.05 ± 0.074
TQKRTHVLKKNPLKNKQ [RPL4A]		2.52 ± 0.22		2.99 ± 0.14
GGESMEGPKKCIQVNCL [SNM1]	1.92 ± 0.053	1.95 ± 0.054	2.23 ± 0.1	1.79 ± 0.054
PIGRHEELLAQYESQAP [SWP82]	2.35 ± 0.057	2.25 ± 0.063	2.07 ± 0.1	2.07 ± 0.037
ATFTSIELTSYESIATY [RPN7]	1.75 ± 0.038	1.9 ± 0.04	1.77 ± 0.046	1.77 ± 0.025
LIIQYPPNNARRTYNTL [ISW2]	2.09 ± 0.037	2.49 ± 0.042	2.43 ± 0.052	2.33 ± 0.031
GRILQNLLHSYMEKGTQ [YML103C/NUP188]	2.66 ± 0.14	2.51 ± 0.096	1.96 ± 0.086	2.51 ± 0.12
NNSALSNVNSDIYFKLK [RPT3]	3.12 ± 0.14	2.96 ± 0.12	3.27 ± 0.14	3.25 ± 0.073
VMLLGTPDANLISKPAK [UBP6]		3.28 ± 0.13	2.98 ± 0.13	3.32 ± 0.12
SKKSTITVRYWLNGKMD [RGR1]			2.28 ± 0.2	
LSVDDIRGAVGNSEAIP [RTT102]	3.35 ± 0.053	3.38 ± 0.057	3.3 ± 0.056	3.41 ± 0.047
IESIVNLAPKLRNVFLG [GRR1]	1.94 ± 0.13	1.41 ± 0.085	1.26 ± 0.14	1.42 ± 0.064
IAKIKKVCECVCMHCGK [RPO21]	1.92 ± 0.057	2.28 ± 0.067	2.7 ± 0.091	2.43 ± 0.046
LAVCDELGNMTMLITGQ [SIN4]	2.21 ± 0.06	2.55 ± 0.046	2.23 ± 0.061	2.02 ± 0.045
EIDVENHDRINISNNLQ [RPN8]	3.21 ± 0.061	3.26 ± 0.082	3.32 ± 0.043	3.21 ± 0.054
TWYVGNSRGKFDDACNQ [SSN2]	3.43 ± 0.19	3.14 ± 0.12	2.9 ± 0.11	3.26 ± 0.16
LIEKVDDTAANNGDKDH [YIL149C/MLP2]	3.09 ± 0.099	3.25 ± 0.084	2.99 ± 0.086	3.09 ± 0.065
ISHIEKRIESLQKDLQR [SMC1]	1.86 ± 0.065	2.48 ± 0.077	1.75 ± 0.09	1.85 ± 0.066
SVAVHFQYVIDESSGTS [SMC4]	1.99 ± 0.081	1.6 ± 0.074	2.01 ± 0.074	1.77 ± 0.055

Sequence	protein stability index (doa10∆)	protein stability index (pdr5∆)	protein stability index (san1∆)	protein stability index (ubr1∆)
LSAENIEERLVAIAEQD [SCL1]	3.22 ± 0.083	3.18 ± 0.089	3.33 ± 0.061	3.32 ± 0.066
TCAVGVKGKNCVVLGCE [PRE6]				3.42 ± 0.24
SSKKSKRLDKVGKKKGG [LRP1]	2 ± 0.08	1.17 ± 0.068	1.91 ± 0.12	1.43 ± 0.057
ANLMLVMLRLLLVVIFK [SRB4]	1.49 ± 0.045	1.51 ± 0.047	1.24 ± 0.088	1.46 ± 0.034
IGLIALSATGTRSAKKM [YJR042W/NUP85]			3 ± 0.15	
DTPTSGKHNLTIWCVCD [BRR2]	3.05 ± 0.11	3.22 ± 0.1	3.14 ± 0.075	3.08 ± 0.082
NNHNMRNNSNNKTSNNN [SWI1]	2.56 ± 0.088	2.55 ± 0.068	1.85 ± 0.093	2.6 ± 0.049
NYHPMNIDETSDEVSRG [SMC4]	3.17 ± 0.082	3.17 ± 0.064	3.23 ± 0.054	3.14 ± 0.041
NLKGRPYTGWVDSKTKE [FAS2]	3.03 ± 0.062	2.95 ± 0.047	3.11 ± 0.048	3.04 ± 0.045
DSAAIIAATGLNQINGL [GRR1]	2.85 ± 0.096	2.83 ± 0.089	2.79 ± 0.083	2.96 ± 0.073
MAGSQFENGNITGEDEV [RRP45]	3.02 ± 0.095	3.08 ± 0.1	3.13 ± 0.13	2.95 ± 0.09
LDIPNVSLVVNFQISKK [PRP28]	2.32 ± 0.067	2.51 ± 0.077	2.35 ± 0.087	2.71 ± 0.069
RCKIYFFYLRISKKLQF [PCI8]	1.29 ± 0.06	1.31 ± 0.046	1.19 ± 0.093	1.35 ± 0.052
IGMSLLMRTFLYTLAQE [SIR3]	1.82 ± 0.14	2.37 ± 0.083	1.83 ± 0.1	1.76 ± 0.11
SFELKEEDISDLWNNFG [RRP6]	2.85 ± 0.1	3.1 ± 0.12	2.47 ± 0.091	3.26 ± 0.073
PGNRNADNVDKILEQFE [FAS2]	1.63 ± 0.11	1.53 ± 0.18	2.5 ± 0.19	2.5 ± 0.087
KTGITKKDEDEEADEDM [PRE9]	3.37 ± 0.13	3.7 ± 0.26	3.5 ± 0.11	2.95 ± 0.23
HGSIIILGMLSLADNEI [YCS4]	1.99 ± 0.069	2.04 ± 0.069	2.05 ± 0.1	2.25 ± 0.075
APKWYPSEDVAALKKTR [RPL6A]	2.5 ± 0.07	2.97 ± 0.063	2.75 ± 0.049	2.53 ± 0.051
QYVTQIEQEKQEQQEQD [PRE6]	2.23 ± 0.064	1.93 ± 0.057	2.85 ± 0.058	1.9 ± 0.045
MVLRKQKRYTVKKALAK [RPL14A]	2.08 ± 0.14	2.13 ± 0.1		1.55 ± 0.19
VAALRFTAGARAKIVKA [RPL18A]	1.31 ± 0.089	1.4 ± 0.069	1.24 ± 0.2	1.18 ± 0.1
SAYVKAFYQKGNKLVEL [SMC1]	1.45 ± 0.074	1.99 ± 0.051	2.12 ± 0.097	1.58 ± 0.052
GRVTFIPLNRLSLDSDV [SMC3]	2.65 ± 0.09	2.9 ± 0.053	2.85 ± 0.063	3.09 ± 0.058
EKLTSKSLDEQLLLLSD [LRP1]	3.16 ± 0.077	3.44 ± 0.065	2.94 ± 0.038	3.31 ± 0.036
SFNESQRGEDDLTFKLA [RPO21]			3.54 ± 0.15	1.09 ± 0.14
DDIYDISLLKNRRKQSF [RPN4]	2.91 ± 0.11	3.08 ± 0.12	3.13 ± 0.12	3.1 ± 0.14
